Tests used:
Assay in all cases: cell_activity
[1] = test system: ZFN 56529 (synthetic); settings: pair with 56526; K562 deltaF508 line
[2] = test system: ZFN 56527 (synthetic); settings: pair with 56526; K562 deltaF508 line
[3] = test system: ZFN 56127 (synthetic); settings: pair with 56126; K562
[4] = test system: ZFN 56254 (synthetic); settings: pair with 56255; K562
[5] = test system: ZFN 56690 (synthetic); settings: pair with 56691; Neuro2a
[6] = test system: ZFN 56316 (synthetic); settings: pair with 56317; K562
[7] = test system: ZFN 56643 (synthetic); settings: pair with 56644; Neuro2a
[8] = test system: ZFN 56526 (synthetic); settings: 16.8% with 56527; K562 deltaF508 line
[9] = test system: ZFN 56444 (synthetic); settings: pair with 56445; K562; F6 printed QSGMLAR but cited as SEQ 5 (QSGNLAR)
[10] = test system: ZFN 56126 (synthetic); settings: pair with 56127; K562
[11] = test system: ZFN 56691 (synthetic); settings: pair with 56690; Neuro2a; Table 2 site differs slightly from listing
[12] = test system: ZFN 56445 (synthetic); settings: pair with 56444; K562
[13] = test system: ZFN 56255 (synthetic); settings: pair with 56254; K562
[14] = test system: ZFN 56644 (synthetic); settings: pair with 56643; Neuro2a
[15] = test system: ZFN 56317 (synthetic); settings: pair with 56316; K562

“ATGATGAATATAGATACAGAAGCGTCAT (double strand) [CFTR dF508 56529/56527 site]” was tested, and the activity [1] was 19.6 % indels and the activity [2] was 16.8 % indels.

For “ATGGAAACTGAGCTGCAGGTGTGTGATT (double strand) [CFTR int7 56127 site]”, the activity [3] was 55.4 % indels.

“ATTAAGTCCACGCATACTGAAGTCTTGG (double strand) [CFTR int8 56254 site]” showed an activity [4] of 50.1 % indels.

“CCCTGGGTTATGCTGTGATCTTGTGTCA (double strand) [Cftr int1 56690 site]” showed an activity [5] of 67.2 % indels.

For “GAAAAGACTATTGAGGGACTGGTGTAGA (double strand) [CFTR int1 56316 site]”, the activity [6] was 52 % indels.

“GCAATGCTTCATGGGAAAGTACAGTGGC (double strand) [Cftr int8 56643 site]” was tested, and the activity [7] was 49.2 % indels.

With “GGAAACACCAATGATATTTTCTTTAATG (double strand) [CFTR dF508 56526 site]” the activity [8] was 19.6 % indels.

With “GGGAAGAAGCAGCTGAAATGTGTAGGTG (double strand) [CFTR int3 56444 site]” the activity [9] was 32.7 % indels.

For “GTACACTGGACTCAGCAGCCTGAATTCC (double strand) [CFTR int7 56126 site]”, the activity [10] was 55.4 % indels.

Work on “GTCAACAGGTGTACTGCAGGCATGCTAG (double strand) [Cftr int1 56691 site]” yielded an activity [11] of 67.2 % indels.

“GTGAGAAGGCAGAGAGAAGAATATTTAT (double strand) [CFTR int3 56445 site]” was tested, and the activity [12] was 32.7 % indels.

For “TAGGGAAGGTAGGAGCATAAGGAAGAAT (double strand) [CFTR int8 56255 site]”, the activity [13] was 50.1 % indels.

For “TGGAAGCTGAAGTTCTTGGAACATAGCA (double strand) [Cftr int8 56644 site]”, the activity [14] was 49.2 % indels.

Work on “TTTATCCTTTTGCTGACCATGTTTTGTT (double strand) [CFTR int1 56317 site]” yielded an activity [15] of 52 % indels.
